According to US20260049151A1 (SHENGHE CHINA BIOPHARMACEUTICAL, published 2026):
Read-outs that look alike come from different tables or passages of the source.

B1: Antibody G (bispecific antibody, human IgG1, kappa)
light: DIVMTQSPATLSVSPGERATLSCKASQNVGSNVDWYQQKPGQSPRVLIYKASIRYTGIPARFSGSGSGTEFTLTISILQSEDFAVYFCMQSKSYPITFGQGTKLEIKRTVAAPSVFIFPPSDEQLKSGTASVVCLLNNFYPREAKVQWKVDNALQSGNSQESVTEQDSKDSTYSLSSTLTLSKADYEKHKVYACEVTHQGLSSPVTKSFNRGEC
heavy: not shown
notes: IgG1 subtype; full-length TNFR2 antibody with 4-1BB scFv at the N-terminus of the heavy chains
B2: Antibody E2 (bispecific antibody, human IgG4 S228P, kappa)
light: DIVMTQSPATLSVSPGERATLSCKASQNVGSNVDWYQQKPGQSPRVLIYKASIRYTGIPARFSGSGSGTEFTLTISILQSEDFAVYFCMQSKSYPITFGQGTKLEIKRTVAAPSVFIFPPSDEQLKSGTASVVCLLNNFYPREAKVQWKVDNALQSGNSQESVTEQDSKDSTYSLSSTLTLSKADYEKHKVYACEVTHQGLSSPVTKSFNRGEC
heavy: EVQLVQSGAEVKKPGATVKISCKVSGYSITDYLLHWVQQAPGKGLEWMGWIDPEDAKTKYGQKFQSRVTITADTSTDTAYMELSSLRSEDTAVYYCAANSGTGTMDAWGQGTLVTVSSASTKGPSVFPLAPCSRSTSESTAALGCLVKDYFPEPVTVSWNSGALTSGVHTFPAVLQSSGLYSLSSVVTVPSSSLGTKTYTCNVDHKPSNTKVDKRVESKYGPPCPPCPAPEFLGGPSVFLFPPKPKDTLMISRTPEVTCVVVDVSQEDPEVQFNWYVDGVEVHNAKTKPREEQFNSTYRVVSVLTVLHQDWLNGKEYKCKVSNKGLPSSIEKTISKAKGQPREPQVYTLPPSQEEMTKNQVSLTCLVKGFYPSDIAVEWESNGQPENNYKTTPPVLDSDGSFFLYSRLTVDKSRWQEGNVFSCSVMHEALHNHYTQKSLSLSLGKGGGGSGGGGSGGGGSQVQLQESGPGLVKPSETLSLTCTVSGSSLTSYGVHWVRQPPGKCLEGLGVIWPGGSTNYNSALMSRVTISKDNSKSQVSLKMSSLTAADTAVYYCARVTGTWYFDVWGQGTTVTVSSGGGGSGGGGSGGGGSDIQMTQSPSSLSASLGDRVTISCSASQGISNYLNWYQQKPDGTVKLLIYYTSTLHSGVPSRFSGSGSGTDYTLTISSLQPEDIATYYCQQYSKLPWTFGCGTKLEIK
notes: IgG4 subtype; same order as E1
B3: Antibody K (bispecific antibody, human IgG1, kappa)
light: DIQMTQSPSSLSASLGDRVTISCSASQGISNYLNWYQQKPDGTVKLLIYYTSTLHSGVPSRFSGSGSGTDYTLTISSLQPEDIATYYCQQYSKLPWTFGGGTKLEIKRTVAAPSVFIFPPSDEQLKSGTASVVCLLNNFYPREAKVQWKVDNALQSGNSQESVTEQDSKDSTYSLSSTLTLSKADYEKHKVYACEVTHQGLSSPVTKSFNRGECGGGGSGGGGSEVQLVESGGGLVQPGGSLRLSCAASGSRLDYYAVAWFRQAPGKEREEVSCITYSGGSTNYAESVKGRFTISRDNSKNTLYLQMNSLRAEDTAVYYCTTEPYGSSCPLSGYDTWGQGTLVTVSS
heavy: not shown
notes: IgG1 subtype; full-length 4-1BB antibody with TNFR2 VHH at the C-terminus of the light chains
B4: Antibody N (bispecific antibody, human IgG1, kappa)
light: EVQLVESGGGLVQPGGSLRLSCAASGSRLDYYAVAWFRQAPGKEREEVSCITYSGGSTNYAESVKGRFTISRDNSKNTLYLQMNSLRAEDTAVYYCTTEPYGSSCPLSGYDTWGQGTLVTVSSGGGGSGGGGSGGGGSDIQMTQSPSSLSASLGDRVTISCSASQGISNYLNWYQQKPDGTVKLLIYYTSTLHSGVPSRFSGSGSGTDYTLTISSLQPEDIATYYCQQYSKLPWTFGGGTKLEIKRTVAAPSVFIFPPSDEQLKSGTASVVCLLNNFYPREAKVQWKVDNALQSGNSQESVTEQDSKDSTYSLSSTLTLSKADYEKHKVYACEVTHQGLSSPVTKSFNRGEC
heavy: not shown
notes: IgG1 subtype; full-length 4-1BB antibody with TNFR2 VHH at the N-terminus of the light chains

Key:
Human 4-1BB His [1] = target: T1, Human 4-1BB His (human, UniProt Q07011 24-186); assay: ELISA: Human 4-1BB His coated (0.2 ug/mL), antibody titrated, goat anti-human IgG Fc detection (Example 3)
T1 construct: Bought protein; lots 198-2146F1-W6 and 2407c-214FF1-YC; also called human 4-1BB protein; 4-1BB protein; not shown: His tag
Experimental: (§1) Human 4-1BB His (manufacturer: Acro, CAT: 41B-H5258, LOT: 198-2146F1-W6) was diluted to 0.2 μg/mL with a coating solution (1×PBS, pH7.4), and coated in 96-well ELISA plate at 100 μL/well overnight at 4° C. The coating solution was poured off. Each well was washed with 1×PBST at 300 μL, washed 4 times with a plate washer, and patted dry on a flat paper. It was blocked with 3% skim milk powder at 300 μL/well, and incubated at 37° C. for 1 h. The blocking solution was poured off, washed 4 times with a plate washer, and patted dry on a flat paper. Negative control and positive control were set up. […] The variable region of the antibody sequence of the positive control consists of SEQ ID NO: 15 and SEQ ID NO: 19, with the addition of the constant region of human IgG1 (SEQ ID NO: 46 and SEQ ID NO: 47). The positive control and antibody were diluted to 10 μg/mL with 3% skim milk powder as the starting concentration, and then diluted by 3-fold gradient (11 gradients in total), and a blank well was set up and only the diluent was added. It was incubated at 37° C. for 1 h at 100 μL/well. The liquid in the well was discarded, washed 4 times with a plate washer, and patted dry on a flat paper. Goat anti-human IgG Fc was diluted with 3% skim milk powder at 1:20000, and incubated at 37° C. for 1 h at 100 μL/well. It was washed 6 times with a plate washer, and patted dry on a flat paper. TMB color developing solution was added at 100 μL/well, and wrapped with aluminum foil. Color development was performed at 37° C. in the dark for 8 min. Termination solution 1M HCl was added to terminate the color development reaction at 100 μL/well. Readings were taken at 450 nm on an ELISA reader.

Human 4-1BB Fc = target: T2, Human 4-1BB Fc (human, UniProt Q07011 24-186); assay: bridging ELISA: Human 4-1BB Fc coated (0.3 ug/mL), antibody titrated, then Human-TNFR2-His (0.3 ug/mL), HRP anti-His detection (Example 4)
T2 construct: same catalogue and lot number as Human 4-1BB His; not shown: Fc
Experimental: Human 4-1BB Fc (manufacturer: Acro, CAT: 41B-H5258, LOT: 198-2146F1-W6) was diluted to 0.3 μg/mL with a coating solution (1×PBS, pH7.4) and coated into a 96-well ELISA plate at 100 µL/well at 4° C. overnight. The coating solution was poured off. Each well was washed with 1×PBST at 300 μL, washed 4 times with a plate washer, and patted dry on a flat sheet. It was blocked with 3% skim milk powder at 300 μL/well, and incubated at 37° C. for 1 h. The blocking solution was poured off, washed 4 times with a plate washer, and patted dry on a flat sheet. […] Starting at 50 nM, which was used as the initial concentration for 3-fold dilution, a total of 10 gradients were diluted, and a blank well was set up and only the diluent was added. It was incubated at 37° C. for 1 h at 100 μL/well. The liquid in the well was discarded, washed 4 times with a plate washer, and patted dry on a flat paper. Human-TNFR2-His (manufacturer: Sino, CAT: 10417-H08H, LOT: LC15NO0412) was diluted to 0.3 μg/mL, 100 μL was added to each well, and incubated at room temperature for 1 h. The plate was washed 3 times with PBST, and then the HRP-labeled his antibody was diluted with sample diluent at 1:5000, 100 μ L was added to each well, and incubated at room temperature for 1 h. It was washed 6 times with a plate washer, and patted dry on a flat paper. TMB color developing solution was added at 100 μL/well, and wrapped with aluminum foil. Color development was performed at 37° C. in the dark for 8 min. Termination solution 1M HCl was added to terminate the color development reaction at 100 μL/well. Readings were taken at 450 nm on an ELISA reader.

Human TNFR2 mFc = target: T3, Human TNFR2 mFc (human, UniProt P20333 23-257); assay: bridging ELISA: Human TNFR2 mFc coated (0.3 ug/mL), antibody titrated, then Human 4-1BB His (0.3 ug/mL), HRP anti-His detection (Example 5)
T3 construct: Bought protein; not shown: mFc
T3 sequence (looked up): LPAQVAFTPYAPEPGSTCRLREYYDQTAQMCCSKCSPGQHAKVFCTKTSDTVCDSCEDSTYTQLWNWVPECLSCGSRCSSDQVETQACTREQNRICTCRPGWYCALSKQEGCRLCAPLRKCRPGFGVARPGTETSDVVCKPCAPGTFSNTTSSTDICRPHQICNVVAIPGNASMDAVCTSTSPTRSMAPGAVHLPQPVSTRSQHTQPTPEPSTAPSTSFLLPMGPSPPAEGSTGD
Experimental: Human TNFR2 mFc (manufacturer: Kaixia, CAT: TN-HM3R2, LOT: 031202) was diluted to 0.3 μg/mL with a coating solution (1×PBS, pH7.4) and coated into a 96-well ELISA plate at 100 μL/well at 4° C. overnight. The coating solution was poured off. Each well was washed with 1×PBST at 300 μL, washed 4 times with a plate washer, and patted dry on a flat paper. It was blocked with 3% skim milk powder at 300 μL/well, and incubated at 37° C. for 1 h. The blocking solution was poured off, washed 4 times with a plate washer, and patted dry on a flat paper. […] Starting at 50 nM, which was used as the initial concentration for 3-fold dilution, a total of 10 gradients were diluted, and a blank well was set up and only the diluent was added. It was incubated at 37° C. for 1 h at 100 µL/well. The liquid in the well was discarded, washed 4 times with a plate washer, and patted dry on a flat paper. Human 4-1BB His (manufacturer: Acro, CAT: 41B-H5258, LOT: 198-2146F1-W6) was diluted to 0.3 μg/mL, 100 μL was added to each well, and incubated at room temperature for 1 h. The plate was washed 3 times with PBST, and then the HRP-labeled his antibody was diluted with sample diluent at 1:5000, 100 μ L was added to each well, and incubated at room temperature for 1 h. It was washed 6 times with a plate washer, and patted dry on a flat paper. TMB color developing solution was added at 100 μL/well, and wrapped with aluminum foil. Color development was performed at 37° C. in the dark for 8 min. Termination solution 1M HCl was added to terminate the color development reaction at 100 μL/well. Readings were taken at 450 nm on an ELISA reader.

Human-TNFR2-His [2] = target: T4, Human-TNFR2-His (human, UniProt P20333 23-257); assay: ELISA: Human-TNFR2-His coated (0.1 ug/mL), antibody titrated, goat anti-human IgG Fc detection (Example 2)
T4 construct: Bought protein; also called human TNFR2 protein; TNFR2 protein; not shown: His tag
T4 sequence (looked up): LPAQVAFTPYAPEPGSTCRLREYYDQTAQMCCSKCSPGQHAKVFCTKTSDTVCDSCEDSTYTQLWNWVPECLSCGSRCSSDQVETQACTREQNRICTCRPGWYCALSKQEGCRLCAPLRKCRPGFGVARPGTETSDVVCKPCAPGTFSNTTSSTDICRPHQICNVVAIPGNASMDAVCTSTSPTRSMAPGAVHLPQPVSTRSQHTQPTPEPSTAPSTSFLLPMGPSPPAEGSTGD
Experimental: (§2) Human-TNFR2-His (manufacturer: SINO, CAT: 10417-H08H, LOT: LC15NO0412) was diluted to 0.1 μg/mL with a coating solution (1×PBS, pH7.4), and coated in 96-well ELISA plate at 100 µL/well overnight at 4° C. The coating solution was poured off. Each well was washed with 1×PBST at 300 μL, washed 4 times with a plate washer, and patted dry on a flat paper. It was blocked with 3% skim milk powder at 300 μL/well, and incubated at 37° C. for 1 h. The blocking solution was poured off, washed 4 times with a plate washer, and patted dry on a flat paper. Negative control and positive control were set up. […] The positive control and antibody were diluted to 10 μg/mL with 3% skim milk powder as the starting concentration, and then diluted by 3-fold gradient (11 gradients in total), and a blank well was set up and only the diluent was added. It was incubated at 37° C. for 1 h at 100 μL/well. The liquid in the well was discarded, washed 4 times with a plate washer, and patted dry on a flat paper. Goat anti-human IgG Fc was diluted with 3% skim milk powder at 1:10000, and incubated at 37° C. for 1 h at 100 μL/well. It was washed 6 times with a plate washer, and patted dry on a flat paper. TMB color developing solution was added at 100 μL/well, and wrapped with aluminum foil. Color development was performed at 37° C. in the dark for 8 min. Termination solution 1M HCl was added to terminate the color development reaction at 100 μL/well. Readings were taken at 450 nm on an ELISA reader.

Human-TNFR2-His [3] = target: T4, Human-TNFR2-His; assay: as above; remark: listed apart in the source
Experimental: as §2

Human 4-1BB His [4] = target: T1, Human 4-1BB His; assay: ELISA: Human 4-1BB His coated (0.2 ug/mL), antibody titrated, goat anti-human IgG Fc detection (Example 3); remark: listed apart in the source
Experimental: as §1

Human-TNFR2-His [5] = target: T4, Human-TNFR2-His; assay: ELISA: Human-TNFR2-His coated (0.1 ug/mL), antibody titrated, goat anti-human IgG Fc detection (Example 2); remark: listed apart in the source
Experimental: as §2

Human 4-1BB His [6] = target: T1, Human 4-1BB His; assay: ELISA: Human 4-1BB His coated (0.2 ug/mL), antibody titrated, goat anti-human IgG Fc detection (Example 3); remark: listed apart in the source
Experimental: as §1

Human-TNFR2-His [7] = target: T4, Human-TNFR2-His; assay: ELISA: Human-TNFR2-His coated (0.1 ug/mL), antibody titrated, goat anti-human IgG Fc detection (Example 2); remark: listed apart in the source
Experimental: as §2

T1 sequence (Q07011 24-186 limits assumed): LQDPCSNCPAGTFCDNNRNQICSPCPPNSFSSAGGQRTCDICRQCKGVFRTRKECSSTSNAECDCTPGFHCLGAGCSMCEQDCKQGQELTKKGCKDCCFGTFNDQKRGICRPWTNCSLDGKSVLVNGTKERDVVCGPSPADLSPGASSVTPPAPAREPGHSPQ
T2 sequence (Q07011 24-186 limits assumed): as above

Row | Binder | EC50 (read off the curve) (Human 4-1BB His [1]) | EC50 (read off the curve) (Human 4-1BB Fc) | EC50 (read off the curve) (Human TNFR2 mFc) | EC50 (read off the curve) (Human-TNFR2-His [2]) | EC50 (read off the curve) (Human-TNFR2-His [3]) | EC50 (read off the curve) (Human 4-1BB His [4]) | EC50 (read off the curve) (Human-TNFR2-His [5]) | EC50 (read off the curve) (Human 4-1BB His [6]) | EC50 (read off the curve) (Human-TNFR2-His [7])
1 | B1 | ~0.07 nM | ~0.5 nM | ~0.2 nM | ~0.1 nM |  |  |  |  | 
2 | B2 |  |  |  |  | ~0.2 nM | 0.3 to 0.4 nM |  |  | 
3 | B3 |  | ~0.3 nM | ~0.2 nM |  |  |  | ~0.6 nM | ~0.1 nM | 
4 | B4 |  | ~0.3 nM |  |  |  |  |  | ~0.3 nM | ~0.1 nM
